Reference: PMC12159680, “Nuclear protein FNBP4: A novel inhibitor of non-diaphanous formin FMN1-mediated actin cytoskeleton dynamics” (The Journal of Biological Chemistry, 2025)
One block for each molecule: values may come before it.

Assays:
[1] = target: FMN1 FH1-FH2 (Mus musculus) (UniProt Q05860); settings: cited from earlier work
Extended FH2 FMN1 = target: T1, Extended FH2 FMN1 (mouse, UniProt Q05860 961-1466); assay: SPR; Biacore T200; WW1-WW2 FNBP4 amine-coupled to a CM5 chip (1016.5 RU); Extended FH2 FMN1 flowed over at various concentrations; HBS-N running buffer; 25 °C; association 120 s, dissociation 380 s; global fit to a 1:1 Langmuir model; settings: both partners purified
T1 sequence (looked up): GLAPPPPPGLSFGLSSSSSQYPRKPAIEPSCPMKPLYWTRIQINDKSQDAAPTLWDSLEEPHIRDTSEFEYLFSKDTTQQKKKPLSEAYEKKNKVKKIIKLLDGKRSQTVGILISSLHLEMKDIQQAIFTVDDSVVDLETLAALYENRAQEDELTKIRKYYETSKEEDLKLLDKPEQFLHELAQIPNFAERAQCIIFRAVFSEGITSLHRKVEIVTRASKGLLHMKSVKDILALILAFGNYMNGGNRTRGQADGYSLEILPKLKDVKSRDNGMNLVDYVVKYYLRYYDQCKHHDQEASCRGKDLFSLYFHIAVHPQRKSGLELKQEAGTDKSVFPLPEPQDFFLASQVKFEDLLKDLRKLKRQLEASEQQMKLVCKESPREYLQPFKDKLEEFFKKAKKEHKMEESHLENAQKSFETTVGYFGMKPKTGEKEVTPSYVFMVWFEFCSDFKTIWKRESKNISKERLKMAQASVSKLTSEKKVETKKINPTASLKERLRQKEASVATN

Chain of FMN1 FH1-FH2 (Mus musculus) (Q05860 870-1435): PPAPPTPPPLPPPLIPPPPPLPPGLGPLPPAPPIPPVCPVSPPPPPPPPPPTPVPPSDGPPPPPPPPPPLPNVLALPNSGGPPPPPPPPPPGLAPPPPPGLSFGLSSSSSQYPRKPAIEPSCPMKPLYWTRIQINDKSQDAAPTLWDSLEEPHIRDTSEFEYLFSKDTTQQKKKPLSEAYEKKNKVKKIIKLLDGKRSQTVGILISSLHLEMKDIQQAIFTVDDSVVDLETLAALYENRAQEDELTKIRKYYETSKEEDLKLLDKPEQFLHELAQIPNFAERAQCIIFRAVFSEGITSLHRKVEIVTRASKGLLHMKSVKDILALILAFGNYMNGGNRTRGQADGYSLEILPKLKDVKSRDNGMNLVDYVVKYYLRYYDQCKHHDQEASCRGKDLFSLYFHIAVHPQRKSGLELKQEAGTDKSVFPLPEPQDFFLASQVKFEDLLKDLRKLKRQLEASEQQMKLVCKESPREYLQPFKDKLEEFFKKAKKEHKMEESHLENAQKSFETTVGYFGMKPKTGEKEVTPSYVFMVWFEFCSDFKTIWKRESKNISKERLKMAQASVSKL

Molecule: FNBP4 WW1-WW2 (from UniProt Q6ZQ03)
Kd [1]: 2 nM

Kd (Extended FH2 FMN1): 36.5 nM
koff (Extended FH2 FMN1): 0.000803 s⁻¹
kon (Extended FH2 FMN1): 22500 M⁻¹ s⁻¹
B1: N-terminal WW1-WW2 FNBP4 (domain or fragment, human, UniProt Q8N3X1 214-629, looked up)
chain: GIEMGDWQEVWDENTGCYYYWNTQTNEVTWELPQYLATQVQGLQHYQPSSVPGAETSFVVNTDIYSKEKTISVSSSKSGPVIAKREVKKEVNEGIQALSNSEEEKKGVAASLLAPLLPEGIKEEEERWRRKVICKEEPVSEVKETSTTVEEATTIVKPQEIMLDNIEDPSQEDLCSVVQSGESEEEEEQDTLELELVLERKKAELRALEEGDGSVSGSSPRSDISQPASQDGMRRLMSKRGKWKMFVRATSPESTSRSSSKTGRDTPENGETAIGAENSEKIDENSDKEMEVEESPEKIKVQTTPKVEEEQDLKFQIGELANTLTSKFEFLGINRQSISNFHVLLLQTETRIADWREGALNGNYLKRKLQDAAEQLKQYEINATPKGWSCHWDRDHRRYFYVNEQSGESQWEFPDG
